From patent publication US11090391B2, “Protein nanocages with enhanced mucus penetration for targeted tissue and intracellular delivery” (The Johns Hopkins University, priority 2016, dated 2021)

How the values were obtained:
3LL cells [1] = assay: Cell uptake / TfR 1-dependent binding of Cy5-labeled FTn formulations, flow cytometry; type: cell-based, mouse
Method: (§1) See detailed procedures as described in Example 4.
Subsequently, cells were incubated with Vibrant® DiO cell labeling solution (Life technologies) for 10 minutes following manufacturer's protocol (sub-cellular localization at cell membranes & lipids). After three times washing with PBS, the cells were fixed with Z-fix solution (Anatech) for 15 min, followed by 1.5 μg/mL DAPI staining at room temperature.
(§2) After washing with cold PBS, cells were analyzed using an AccuriC6 flow cytometer (BD Biosciences). […] The data was fitted to a binding curve via non-linear regression method using GraphPad Prism (GraphPad Software).

3LL cell spheroids = assay: Penetration of Cy5-labeled FTn in multicellular tumor spheroids; type: cell-based, mouse; details: for distribution in spheroids (3D-reconstructed confocal images): 40 nM, 2-hour incubation; for mean fluorescence signal intensity in spheroids compared to FTn: FIG. 4A
Method: as §1
Multicellular tumor spheroid models consisting of different cancer cell lines were prepared by modifying a previously reported protocol (Friedrich J, et al, Nature Protocols, 4:309-324 (2009)). Briefly, 50 μL DMEM medium containing 1.5% agarose (wt/vol) was plated onto each well of a 96-well microtiter plate under sterile conditions. After the agarose solidifies, the plates were stored at room temperature until use. For the penetration study, 5×10^3 cells were seeded onto the agarose-plated 96-well plates. After 4-5 days culture to obtain multicellular tumor spheroids (400-500 μm in diameter), the tumor spheroids were carefully transferred into glass bottom dishes. […] After the 2-hour incubation, the cells were observed using confocal microscopy with Z-stack imaging at ˜10 μm intervals. […] The 3D images of spheroids were reconstructed by ZEN microscopy software (Carl Zeiss). For analyzing the penetration distance, the radial intensity distribution profile was determined using a custom-made MATLAB code where αtumor is the radius of individual spheroids and r is the radial distance from the spheroid center (r/αtumor=0 and 1 indicate the center and edge of the tumor spheroid, respectively). […] Quantification analysis of signal intensity was performed with ImageJ software (NIH).

[2] = PEG surface density, fluorometric determination; type: physicochemical; details: for PEG2k density: reassembled FTn by % PEGylated protein
Method: The solution was placed on a rotary incubator for 4 hours and then concentrated by centrifugation (Amicon Ultra-0.5 mL 30 K MWCO; Millipore). […] The density was fluorometrically determined (Suk J S, et al., Advanced Drug Delivery Reviews, 99(Pt A):28-51, Epub 2015).
The ratio [Γ/SA] of total unconstrained PEG surface coverage area [Γ] to total particle surface area [SA] determines the surface PEG conformation: low-density mushroom and high-density brush regimes when [Γ/SA]<1 and [Γ/SA]≥1, respectively (Xu Q, et al., ACS Nano, 9. 9217-9227 (2015); Auguste D T, Biomaterials, 27, 2599-2608 (2006)). Briefly, the surface area occupied by one unconstrained PEG chain was calculated by random-walk statistics and given by a sphere of diameter ξ: ξ=0.76 m^1/2[Å], where m is MW of PEG chain, and the surface area occupied by one PEG molecule can be determined by π(ξ/2)^2. Thus, the surface area occupied by unconstrained PEG of MWs 10, 5 and 2 kDa is 45, 23 and 9 nm^2, respectively. The total unconstrained PEG surface area coverage [Γ] was then calculated by multiplying the area occupied at the surface per PEG chain by the total number of PEG chains per protein nanocage.

[3] = system: TfR 1-positive lung cancer cells; assay: Uptake of FTn/FTn-PEG2k by panel of cell lines; type: cell-based; details: C2C12, NCI-H69, H69-AR, SW210.5, A549, NCI-H460, NCI-H1975, PC 9
Method: as §2
TfR 1 expression was determined by western blot analysis with anti-TfR 1 antibody (Ab) (BD Pharmingen) in various cell lines in vitro, including mouse Lewis lung carcinoma (3LL) cells, mouse myoblast (C2C12, a TfR 1-negative cell line as the negative control), human small cell lung cancer cells (NCI-H69, H69-AR, and SW210.5), and human non-small cell lung cancer cells (A549, NCI-H460, NCI-H1975, and PC 9). The expression was also determined when 3LL, A549, PC9, and SW210.5 cells were incubated in 20% oxygen and 1% oxygen (i.e. hypoxic condition).

[4] = Airway distribution after intranasal administration; type: in vivo, mouse; details: for retention in lung airways (overall fluorescence intensity): compared to non-PEGylated FTn; for coverage of mouse tracheal surfaces: intranasal, 10 minutes after administration
Excerpt: All experiments were approved by the Institutional Animal Care and Use Committee.
Female CF-1 mice (6-8 week) were anesthetized under continuous flow of isoflurane (2% in oxygen). […] Ten minutes after administration, mice were sacrificed and the entire lungs (including trachea) were removed and frozen in Tissue-Tek optimal cutting temperature compound (Sakura Finetek). Tracheas were sectioned on a Leica Cryostat (Leica Biosystems) with a section thickness of 10 μm. The sections were stained with Prolong Gold antifade with DAPI (Life technologies), and fluorescence images of the sections were obtained using a Zeiss confocal microscope. To quantify the particle distribution, the acquired images were analyzed by following an image-based analysis method that was previously reported (Mastorakos P, et al., Proc Nat Acad Sci USA, 112(28):8720-5 (2015)). Briefly, at least 10 fluorescence images at 10× magnification were taken for the lungs harvested from individual animals. The images were quantified with ImageJ software. An average coverage and total particles in airways were determined for each mouse, and then these values were averaged over a group of n=4 mice.

[5] = Physicochemical properties (hydrodynamic diameter, ζ-potential, drug loading)
Method: The DOX conjugated PEG-FTn is denoted as FTn/FTn-PEG2k/DOX. […] The mixture was incubated for 1 hour and 1.5 mg EDC was added to activate a carboxyl group of each DOX-linker conjugate. The resultant compounds were analyzed using high-performance liquid chromatography (HPLC, Varian Inc.) equipped with a C18 reverse phase column. […] The final product was extensively dialyzed (10 kDa MWCO; Thermo Scientific) and purified with a PD-10 column.

3LL cells [6] = assay: Intracellular trafficking, confocal microscopy; type: cell-based, mouse; details: 2 hours after addition
[7] = system: orthotopic 3LL lung cancer; details: mouse, in vivo
Method: The mice were sacrificed 2 hour post-administration, and the entire lungs were isolated and frozen slices were prepared.

[8] = Hydrodynamic diameter by gel-filtration / size exclusion chromatography; type: physicochemical
Method: Briefly, the protein standards with known HD (Bio-Rad), including M1 (thyroglobulin; 669 kDa, 18.8 nm HD), M2 (γ-globulin; 158 kDa, 11.9 nm HD), M3 (ovalbumin; 44 kDa, 6.13 nm HD), M4 (myoglobin; 17 kDa, 3.83 nm HD) and M5 (vitamin B12; 1.35 kDa, 1.48 nm HD), were analyzed using GFC and subsequently a standard curve of HD vs retention time was established.

[9] = Colloidal stability by agarose gel electrophoresis (PBS, 10% human plasma); type: physicochemical; details: 0.5% agarose gel, 10% human plasma 1 hour 37° C.
Method: Nanocages reassembled in phosphate buffered saline (PBS) with varying % of PEGylated protein were analyzed by electrophoresis within a 0.5% agarose gel to determine any aggregation.

A549 = assay: Cell uptake of FTn, flow cytometry; type: cell-based, human; details: TfR 1-mediated
Method: as §2

[10] = biological target: transferrin receptor 1 (TfR 1) on mouse Lewis lung carcinoma (3LL) cells (mouse) (UniProt Q62351)

| Substance | PEG2k density [2] | distribution in spheroids (3D-reconstructed confocal images) (3LL cell spheroids) | mean fluorescence signal intensity in spheroids in presence of anti-TfR 1 Ab (3LL cell spheroids; 10-fold molar excess, 1 hour) | mean fluorescence signal intensity in spheroids compared to FTn (3LL cell spheroids) | retention in lung airways (overall fluorescence intensity) [4] | coverage of mouse tracheal surfaces [4] [%] | also measured |
| --- | --- | --- | --- | --- | --- | --- | --- |
| FTn-Cy5: FTn labeled with fluorescent dye Cy5, ~23 dye molecules per FTn |  |  |  |  |  |  | uptake in the presence of anti-TfR 1 antibody (3LL cells [1]; 10-fold molar excess anti-TfR 1 Ab): significantly reduced uptake; penetration in presence of excess unlabeled FTn (3LL cell spheroids; 10-fold molar excess, 1 hour): reduced significantly |
| FTn/FTn-PEG2k: hybrid nanocage formed with 50% ferritin and 50% PEGylated ferritin using PEG2k | 0.21 #/nm^2 | uniformly distributed throughout the entire spheroids including the core | significantly decreased | indistinguishable | retained at higher levels | 77±8 | PEG surface density ([2]; hybrid nanocage, fluorometric measurement): ~0.24±0.03 PEG/nm^2; tumor cell uptake compared to non-PEGylated FTn (3LL cells [1]; 3LL cells, 2 kDa PEG, non-PEGylated FTn = 100%): more than 80%; uptake by TfR 1-positive cells [3]: efficiently taken up; Hydrodynamic diameter [5]: 13.6 ± 1.3 nm; ζ-potential [5]: −4.1 ± 1.1 mV; colocalization with lysosomes (3LL cells [6]): colocalized with lysosomes; localization in orthotopic lung cancer [7]: found preferentially within the tumor tissue |
| FTn/FTn-PEG5k: hybrid FTn with 1:1 molar ratio of FTn and FTn conjugated with 5 kDa PEG |  | primarily near the periphery of tumor spheroids |  | significantly lower intensity | retained at higher levels | 80±8 |  |
| FTn/FTn-PEG10k: hybrid FTn with 1:1 molar ratio of FTn and FTn conjugated with 10 kDa PEG |  | primarily near the periphery of tumor spheroids |  | significantly lower intensity |  | 74±8 | uptake compared to the uptake of FTn (3LL cells [1]; FIG. 3C): significantly reduced |
| FTn: ferritin heavy-chain nanocages self-assembled from recombinant human ferritin heavy chain, without PEG | 0 #/nm^2 | uniformly distributed throughout the entire spheroids including the core | significantly decreased |  |  | 50±9 | diameter from size exclusion chromatography ([8]; pH 2.0, broad peak): 1.8-5.4 nm; diameter from size exclusion chromatography ([8]; pH 7.4, single peak): 13.2 nm; aggregation during electrophoresis (colloidal stability) [9]: aggregated and were stuck in the wells; uptake by A549 (A549): taken up; distribution in airways ([4]; mucus-covered large airways (trachea)): sparsely distributed in airways |
| hybrid nanocage FTn/FTn-PEG2k (50% ferritin and 50% ferritin PEGylated with 2 kDa PEG) (ligand) |  |  |  |  |  |  | relative uptake (%) by 3LL cells, non-PEGylated FTn = 100% (% of the uptake of non-PEGylated FTn) [10]: > 80 |
